Patent publication US20030224036A1, “Hla class I a2 tumor associated antigen peptides and vaccine compositions” (priority 1999, published 2003)

Experiments:
Details in all cases: remark: other sources report otherwise
[1] = target: HLA-A*0201 (human); experiment: competitive inhibition assay, purified HLA
[2] = target: HLA-A*0206 (human); experiment: competitive inhibition assay, purified HLA
[3] = target: HLA-A*0206 (human); experiment: competitive binding assay, purified HLA
[4] = target: HLA-A*6802 (human); experiment: competitive inhibition assay, purified HLA
[5] = target: HLA-A*6802 (human); experiment: competitive binding assay, purified HLA
[6] = target: HLA-A*0201 (human); experiment: competitive binding assay, purified HLA

Binder: VMAGVGSPYV [Her2/neu.773]
- IC50 [1]: 200 nM

Binder: YLSGANLNV [CEA.605V9]
- IC50 [2]: 80 nM
- IC50 [3]: 80 nM

Binder: VVLGVVFGI [Her2/neu.665]
- IC50 [4]: 2000 nM
- IC50 [5]: 2000 nM

Binder: YLQLVFGIEV [MAGE2.157]
- IC50 [1]: 50 nM
- IC50 [6]: 50 nM
